The results in this text go back to the supplement of paper PMC7877785.

The nature of this series: self-splicing fitness, log relative to wild type (ln ratio); higher = more splicing; Tetrahymena group I intron in knt gene, E. coli kanamycin selection, DiMSum; sequences stand for … in CUCUCU…GGAGGGAAAAGUUAUCAGGCAUGCACCUGGUAGCUAGUCUUUAAACCAAUAGAUUGCAUCGGUUUAAAAGGCAAGACCGUCAAAUUGCGGGAAAGGGGUCAACAGCCGUUCAGUACCAAGUCUCAGGGGAAACUUUGAGAUGGCCUUGCAAAGGGUAUGGUAAUAAGCUGACGGACAUGGUCCUAACCACGCAGCCAAGUCCUAAGUCAACAGAUCUUCUGUUGAUAUGGAUGCAGUUCACAGACUAAAUGUCGGUCGGGGAAGAUGUAUUCUUCUCAUAAGAUAUAGUCGGACCUCUCCUUAAUGGGAGCUAGCGGAUGAAGUGAUGCAACACUGGAGCCGCUGGGAACUAAUUUGUAUGCGAAAGUAUAUUGAUUAGUUUUGGAGUACUCGUGGUCG
The method in brief:
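Colonies from six replicate transformations of E. coli BL21(DE3) were pooled and amplicon-sequenced on an Illumina HiSeq 2500. The library placed an intron with all eight P1ex-region nucleotides randomised inside the knt kanamycin-resistance gene on pET-22b(+), and cells grew overnight at 37°C or 30°C on LB agar with or without 25 μg/mL kanamycin (plus 100 μg/mL carbenicillin, 50 μM IPTG, 0.2% rhamnose). Fitness is the DiMSum error-weighted combination of wild-type-normalised replicate fold changes, kanamycin versus none.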

± gives the uncertainty stated by the source.

For the sequence ACGAAGCAAUAUUACGUCCG, the “self-splicing fitness (ln)” value is -0.464 ± 0.097 (30 °C) and -0.122 ± 0.12 (37 °C). As to CCCGAGCAAUAUUACGUACG, the “self-splicing fitness (ln)” value (30 °C) is -3.24 ± 0.18 and the “self-splicing fitness (ln)” value (37 °C) is -2.83 ± 0.24. The like results for CAGCAGCAAUAUUACGUUUU were, in that order, -2.86 ± 0.1 and -1.15 ± 0.11. The like results for AACUAGCAAUAUUACGAACU were, in that order, -0.149 ± 0.088 and -0.455 ± 0.098.

On to CCGGAGCAAUAUUACGUUCU, for which the “self-splicing fitness (ln)” value (30 °C) is -1.23 ± 0.14. In the case of GUAGAGCAAUAUUACGUGUC, the “self-splicing fitness (ln)” value by setting is: (30 °C) -1.68 ± 0.094; (37 °C) -0.37 ± 0.13.

As to UUUGAGCAAUAUUACGGAGG, the “self-splicing fitness (ln)” value is, setting by setting: (30 °C) -3.18 ± 0.32; (37 °C) -2.33 ± 0.46. For the sequence CCAUAGCAAUAUUACGGCGU, the “self-splicing fitness (ln)” value was -3.98 ± 0.3 (30 °C) and -1.97 ± 0.23 (37 °C).

In the case of AUUUAGCAAUAUUACGGCAU, the “self-splicing fitness (ln)” value is -0.0305 ± 0.11 (30 °C) and -0.15 ± 0.18 (37 °C). The like results for CUCAAGCAAUAUUACGCGUC were, in that order, -4.33 ± 0.39 and -1.37 ± 0.16. The like results for ACAUAGCAAUAUUACGACUG were, in that order, -0.814 ± 0.065 and -0.36 ± 0.09. The like results for UCUAAGCAAUAUUACGCCAG were, in that order, -1.18 ± 0.12 and -0.166 ± 0.16. As for CUCAAGCAAUAUUACGUACA, the “self-splicing fitness (ln)” value is -3.5 ± 0.23 (30 °C) and -1.83 ± 0.18 (37 °C). The like results for AGCUAGCAAUAUUACGGUUC were, in that order, -3.44 ± 0.28 and -0.512 ± 0.17. The like results for AUCUAGCAAUAUUACGCUAC were, in that order, -1.85 ± 0.34 and -1.72 ± 0.4.

With CCAAAGCAAUAUUACGAGAU, the “self-splicing fitness (ln)” value reads like this: (30 °C) -3.13 ± 0.2; (37 °C) -2.5 ± 0.23. As to AAGAAGCAAUAUUACGCCGC, the “self-splicing fitness (ln)” value was -2.91 ± 0.25 (30 °C) and -2.63 ± 0.26 (37 °C). The like results for GAGAAGCAAUAUUACGGCGA were, in that order, 0.0811 ± 0.15 and -0.777 ± 0.12. The like results for ACCUAGCAAUAUUACGGUAG were, in that order, -3.45 ± 0.15 and -2.49 ± 0.18. With CGGUAGCAAUAUUACGCUGC, the “self-splicing fitness (ln)” value (37 °C) is -2.17 ± 0.49. Take UCAAAGCAAUAUUACGGUUA: the “self-splicing fitness (ln)” value was -1.04 ± 0.092 (30 °C) and -0.132 ± 0.087 (37 °C).

As to GAAGAGCAAUAUUACGAGGU, the “self-splicing fitness (ln)” value was -4.02 ± 0.39 (30 °C) and -3.52 ± 0.33 (37 °C).

Consider GGAGAGCAAUAUUACGAUAU, for which the “self-splicing fitness (ln)” value reads like this: (30 °C) -3.43 ± 0.24; (37 °C) -0.657 ± 0.16. The like results for AAGUAGCAAUAUUACGUCUU were, in that order, -0.577 ± 0.12 and -0.48 ± 0.11.

Turning to CCGAAGCAAUAUUACGCGGC, the “self-splicing fitness (ln)” value by setting is: (30 °C) -3.55 ± 0.28; (37 °C) -2.27 ± 0.3. In the case of GGUAAGCAAUAUUACGGGGU, under “37 °C”, the “self-splicing fitness (ln)” value was -2.57 ± 0.25. As to CUGUAGCAAUAUUACGUUCU, the “self-splicing fitness (ln)” value (30 °C) is -3.72 ± 0.34 and the “self-splicing fitness (ln)” value (37 °C) was -2.94 ± 0.4. For ACGUAGCAAUAUUACGGGUC, the “self-splicing fitness (ln)” value by setting is: (30 °C) -3.56 ± 0.19; (37 °C) -3.42 ± 0.25.

As to AGCUAGCAAUAUUACGGAAG, the “self-splicing fitness (ln)” value is, setting by setting: (30 °C) -2.35 ± 0.086; (37 °C) -1.34 ± 0.11.

For the sequence ACCAAGCAAUAUUACGUGGU, the “self-splicing fitness (ln)” value reads like this: (30 °C) -3.41 ± 0.1; (37 °C) -2.69 ± 0.13. The like results for GGGAAGCAAUAUUACGCGCA were, in that order, -0.0561 ± 0.11 and -0.304 ± 0.13.

In the case of GCACAGCAAUAUUACGGGUU, the “self-splicing fitness (ln)” value (30 °C) was -1.17 ± 0.041 and the “self-splicing fitness (ln)” value (37 °C) was -0.667 ± 0.055. Regarding GUCUAGCAAUAUUACGCGGC, under “37 °C”, the “self-splicing fitness (ln)” value is -2.87 ± 0.4. UAGCAGCAAUAUUACGUCAG: the “self-splicing fitness (ln)” value by setting is: (30 °C) -0.628 ± 0.1; (37 °C) -1.13 ± 0.12. The like results for CGACAGCAAUAUUACGGGCU were, in that order, -4.16 ± 0.2 and -2.53 ± 0.15. With AAGCAGCAAUAUUACGUUGA, the “self-splicing fitness (ln)” value (30 °C) was -2.89 ± 0.13 and the “self-splicing fitness (ln)” value (37 °C) is -1.51 ± 0.11. On to UCACAGCAAUAUUACGCAAC, for which the “self-splicing fitness (ln)” value (37 °C) is -3.26 ± 0.39. For the sequence UGGGAGCAAUAUUACGAGAU, the “self-splicing fitness (ln)” value is, setting by setting: (30 °C) -1.91 ± 0.27; (37 °C) -2.04 ± 0.47. Turning to UCAUAGCAAUAUUACGGGUA, the “self-splicing fitness (ln)” value (30 °C) is -1.8 ± 0.094 and the “self-splicing fitness (ln)” value (37 °C) was -1.53 ± 0.079.

As to GGCUAGCAAUAUUACGCAAA, the “self-splicing fitness (ln)” value (30 °C) was -1.68 ± 0.18 and the “self-splicing fitness (ln)” value (37 °C) was -0.628 ± 0.16.

Turning to UUCAAGCAAUAUUACGGAAA, the “self-splicing fitness (ln)” value runs as follows: (30 °C) -1.83 ± 0.11; (37 °C) -1.12 ± 0.1. The like results for CGUCAGCAAUAUUACGUGAG were, in that order, -0.162 ± 0.04 and -0.124 ± 0.061. With UAGCAGCAAUAUUACGCAGG, the “self-splicing fitness (ln)” value by setting is: (30 °C) -3.01 ± 0.25; (37 °C) -2.14 ± 0.25.

As for CCAGAGCAAUAUUACGUGGU, the “self-splicing fitness (ln)” value reads like this: (30 °C) -2.75 ± 0.12; (37 °C) -2.96 ± 0.21.

As to UGGUAGCAAUAUUACGGUCG, the “self-splicing fitness (ln)” value by setting is: (30 °C) -0.382 ± 0.12; (37 °C) -0.0256 ± 0.16. The like results for ACCCAGCAAUAUUACGGUGU were, in that order, -2.69 ± 0.076 and -1.64 ± 0.11. The like results for UUAUAGCAAUAUUACGUACG were, in that order, -1.03 ± 0.12 and -0.0555 ± 0.17. In the case of AGGGAGCAAUAUUACGGAUA, for the setting “30 °C”, the “self-splicing fitness (ln)” value is -3.15 ± 0.31.

Consider GGGUAGCAAUAUUACGGGCU, for which the “self-splicing fitness (ln)” value by setting is: (30 °C) -0.35 ± 0.081; (37 °C) 0.282 ± 0.13. The like results for UGGAAGCAAUAUUACGACUA were, in that order, -0.154 ± 0.074 and 0.331 ± 0.11. The like results for ACUGAGCAAUAUUACGGCGG were, in that order, -1.46 ± 0.1 and -1.54 ± 0.13.

Regarding CCAUAGCAAUAUUACGUUCC, the “self-splicing fitness (ln)” value by setting is: (30 °C) -3.61 ± 0.39; (37 °C) -2.52 ± 0.44. The like results for CGAUAGCAAUAUUACGACUC were, in that order, -1.15 ± 0.15 and -1.38 ± 0.17.

Consider ACUGAGCAAUAUUACGAAAA, for which, for the setting “37 °C”, the “self-splicing fitness (ln)” value was -1.32 ± 0.43. The same measure, in the same setting: the figure for AGAUAGCAAUAUUACGAAGC is -1.5 ± 0.28. As for GAUUAGCAAUAUUACGCUAC, the “self-splicing fitness (ln)” value (30 °C) is -3.62 ± 0.42 and the “self-splicing fitness (ln)” value (37 °C) was -1.48 ± 0.29. The like results for AAGCAGCAAUAUUACGGCGG were, in that order, -1.13 ± 0.12 and -1.01 ± 0.14.

As for UGUUAGCAAUAUUACGUAUC, the “self-splicing fitness (ln)” value (37 °C) was -0.937 ± 0.26.

Consider AUUCAGCAAUAUUACGCCAC, for which the “self-splicing fitness (ln)” value (37 °C) was -2.32 ± 0.42.

Turning to CAUAAGCAAUAUUACGAGUC, the “self-splicing fitness (ln)” value (30 °C) was -3.2 ± 0.43 and the “self-splicing fitness (ln)” value (37 °C) was -2.68 ± 0.38. The like results for CUUGAGCAAUAUUACGCCAA were, in that order, -3.52 ± 0.25 and -2.09 ± 0.32.

For CAUGAGCAAUAUUACGACAU, the “self-splicing fitness (ln)” value runs as follows: (30 °C) -3.739 ± 0.028; (37 °C) -2.9 ± 0.043. On to AGUGAGCAAUAUUACGAGGU, for which, under “30 °C”, the “self-splicing fitness (ln)” value was -3.63 ± 0.31. On to AGAGAGCAAUAUUACGAGGG, for which the “self-splicing fitness (ln)” value runs as follows: (30 °C) -3.58 ± 0.39; (37 °C) -2.35 ± 0.42. In the case of ACCUAGCAAUAUUACGUUGC, the “self-splicing fitness (ln)” value was -2.21 ± 0.1 (30 °C) and -1.56 ± 0.14 (37 °C).

For the sequence GGCGAGCAAUAUUACGUCUG, the “self-splicing fitness (ln)” value reads like this: (30 °C) -4.26 ± 0.29; (37 °C) -2.53 ± 0.16. On to UAGGAGCAAUAUUACGAUUC, for which the “self-splicing fitness (ln)” value (30 °C) is -2.08 ± 0.37. Turning to GUGGAGCAAUAUUACGGCUG, the “self-splicing fitness (ln)” value is -2.49 ± 0.21 (30 °C) and -2.1 ± 0.32 (37 °C).

Regarding ACUUAGCAAUAUUACGCGCA, the “self-splicing fitness (ln)” value by setting is: (30 °C) -0.717 ± 0.093; (37 °C) -0.258 ± 0.13. On to AGUGAGCAAUAUUACGCUCC, for which the “self-splicing fitness (ln)” value (30 °C) is -1.69 ± 0.45. With UUGUAGCAAUAUUACGCGAC, the “self-splicing fitness (ln)” value (37 °C) was -0.429 ± 0.37. Same read-out and setting: for GGGAAGCAAUAUUACGUGCC the value was -0.148 ± 0.38. With AGUUAGCAAUAUUACGCGUC, the “self-splicing fitness (ln)” value is -3.11 ± 0.48 (30 °C) and -0.621 ± 0.33 (37 °C). The like results for UUUAAGCAAUAUUACGUCGU were, in that order, -2.14 ± 0.21 and -2.07 ± 0.32. The like results for UUACAGCAAUAUUACGUGGU were, in that order, -3.33 ± 0.13 and -2.36 ± 0.13. The like results for UAGCAGCAAUAUUACGAUAG were, in that order, -1.78 ± 0.073 and -1.46 ± 0.1.

With UUUAAGCAAUAUUACGCCAA, the “self-splicing fitness (ln)” value was -0.939 ± 0.14 (30 °C) and 0.281 ± 0.24 (37 °C). The like results for GAGGAGCAAUAUUACGAUUC were, in that order, -3.4 ± 0.27 and -1.65 ± 0.22. GAGAAGCAAUAUUACGAGUC: the “self-splicing fitness (ln)” value (30 °C) is -2.11 ± 0.11 and the “self-splicing fitness (ln)” value (37 °C) is -1.78 ± 0.2. The like results for UUUAAGCAAUAUUACGGGAU were, in that order, -3.4 ± 0.21 and -1.95 ± 0.2.
